In patent US6699869:

Molecular target: T1, (D)FPR-PNA
T1 chain: FPR

B1: human Factor VIIa (FVIIa) and human tissue factor (TF) complex (protein)
chain 1: ANAFLEELRPGSLERECKEEQCSFEEAREIFKDAERTKLFWISYSDGDQCASSPCQNGGSCKDQLQSYICFCLPAFEGRNCETHKDDQLICVNENGGCEQYCSDHTGTKRSCRCHEGYSLLADGVSCTPTVEYPCGKIPILEKRNASKPQGRIVGGKVCPKGECPWQVLLLVNGAQLCGGTLINTIWVVSAAHCFDKIKNWRNLIAVLGEHDLSEHDGDEQSRRVAQVIIPSTYVPGTTNHDIALLRLHQPVVLTDHVVPLCLPERTFSERTLAFVRFSLVSGWGQLLDRGATALELMVLNVPRLMTQDCLQQSRKVGDSPNITEYMFCAGYSDGSKDSCKGDSGGPHATHYRGTWYLTGIVSWGQGCATVGHFGVYTRVSQYIEWLQKLMRSEPRPGVLLRAPFP
chain 2: SGTTNTVAAYNLTWKSTNFKTILEWEPKPVNQVYTVQISTKSGDWKSKCFYTTDTECDLTDEIVKDVKQTYLARVFSYPAGNVESTGSAGEPLYENSPEFTPYLETNLGQPTIQSFEQVGTKVNVTVEDERTLVRRNNTFLSLRDVFGKDLIYTLYYWKSSSSGKKTAKTNTNEFLIDVDKGENYCFSVQAVIPSRTVNRKSTDSPVECMGQEKGEFRE
Kcat/KM of substrate hydrolysis: Factor VII: Kcat/KM=1.27×10^4 M^-1 S^-1
